Test results from paper PMC7344962 (Antibodies, 2020).
Residue numbers refer to the chain shown, from its start. Where “and” joins values, the source holds several entries; their conditions need not be identical. Equal values may be shown once.

Molecular target: T1, major surface antigen 1 (SAG1) of Toxoplasma gondii (Toxoplasma gondii, strain , UniProt P13664)
T1 construct: major surface antigen 1 (SAG1) of Toxoplasma gondii; SAG1 in complex with the parent antibody is in PDB 1YNT (cited); also called antigen SAG1
T1 sequence (P13664 48-336): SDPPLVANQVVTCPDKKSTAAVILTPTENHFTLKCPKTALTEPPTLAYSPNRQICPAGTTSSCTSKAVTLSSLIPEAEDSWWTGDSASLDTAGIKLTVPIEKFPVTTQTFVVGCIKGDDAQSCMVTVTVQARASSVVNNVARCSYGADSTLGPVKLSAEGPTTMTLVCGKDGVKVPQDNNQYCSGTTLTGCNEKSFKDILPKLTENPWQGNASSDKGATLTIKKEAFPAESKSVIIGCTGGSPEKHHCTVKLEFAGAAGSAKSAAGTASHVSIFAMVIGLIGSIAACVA
Assay: SPR; SAG1 covalently immobilised (1000 RU, EDC/NHS) on a CM5S chip; T200, 25 °C, HBS-EP+; single cycle kinetics with scFv at 600-200-66-22-7.5 nM, 50 µL/min; Langmuir 1:1 then two-state fitting model, similar Kd values in both
Conditions: both partners purified

B1: scFv S1A0 (scFv, V domains shown)
VH: QVQLQQSGAELVRPGVSVKISCKGSGYTFTDYGMHWVKQSHAKSLEWIGIISTYSGDASYNQKFKGKATMTVDKSSSTAYMELARLTSEDSAIYYCARSSTWYYFDYWGQGTTLTVSS
VL: DIQVTQTTSSLSASLGDRVTISCRASQDISNYLNWYQQKPDGTVKLLIYYTSRLHSGVPSRFSGSGSGTDYSLTISNLEQEDIATYFCQQGNTLPYTFGGGTKLEIK
notes: VH A: wild-type heavy variable domain of the murine monoclonal IgG2a antibody 4F11E12 (anti-SAG1); the antibody is also in PDB 1YNT; (Gly4Ser)3 peptide linker; VL 0: wild-type light variable domain of the murine monoclonal IgG2a antibody 4F11E12 (anti-SAG1); VH-linker-VL orientation; also called wild-type scFv; WT scFv; source: E. coli HB2151 periplasm, purified (HisTrap HP); not shown: …
Kd: ~200 nM

B2: scFv S1D4 (scFv, V domains shown)
VH: QVQLQQSGAELVRPGTSVKISCKASGYTFTDYGMHWVKQRPGHGLEWIGIISTYSGDASYNQKFKGKATMTVDKSSSTAYMQLSSLTSEDSAVYYCARSSTWYYFDYWGQGTLVTVSA
VL: B1 VL with V4M, T8P, Q80P, F87Y
notes: VH D: as VH A of m1 with the cluster II and cluster III substitutions (VH Z without cluster I); numbers count on: IMGT numbering; (Gly4Ser)3 peptide linker; VL 4: as VL 0 of m1 with the stated changes; VH-linker-VL orientation; source: E. coli HB2151 periplasm; periplasmic extract loaded on HiScreen Capto L, purified; not shown: Gly3AlaSerHis6, C-terminal, kept
Kd: ~200 nM

B3: scFv S1B4 (scFv, V domains shown)
VH: B2 VH with R40S, P41H, G42A, H43K, G44S
VL: B1 VL with V4M, T8P, Q80P, F87Y
notes: VH B: as VH A of m1 with only the cluster III substitutions; (Gly4Ser)3 peptide linker; VL 4: as VL 0 of m1 with the stated changes; numbers count on: IMGT numbering; VH-linker-VL orientation; source: E. coli HB2151 periplasm; periplasmic extract loaded on HiScreen Capto L, purified; not shown: Gly3AlaSerHis6, C-terminal, kept
Kd: ~200 nM

B4: scFv S1C4 (scFv, V domains shown)
VH: B1 VH with S40R, H41P, A42G, K43H, S44G
VL: B1 VL with V4M, T8P, Q80P, F87Y
notes: VH C: as VH A of m1 with only the cluster II substitutions (C-C' loop); numbers count on: IMGT numbering; (Gly4Ser)3 peptide linker; VL 4: as VL 0 of m1 with the stated changes; VH-linker-VL orientation; source: E. coli HB2151 periplasm; periplasmic extract loaded on HiScreen Capto L, purified; not shown: Gly3AlaSerHis6, C-terminal, kept
Kd: ~200 nM and < 100 nM

B5: scFv S1A4 (scFv, V domains shown)
VH: B1 VH
VL: B1 VL with V4M, T8P, Q80P, F87Y
notes: VH A: as the VH of m1 (wild-type VH of 4F11E12); (Gly4Ser)3 peptide linker; VL 4: as VL 0 of m1 with the stated changes; numbers count on: IMGT numbering; VH-linker-VL orientation; source: E. coli HB2151 periplasm; periplasmic extract loaded on HiScreen Capto L, purified; not shown: Gly3AlaSerHis6, C-terminal, kept
Kd: ~200 nM
